In assay [1] the target is recombinant mature human GDF-15 protein (as expressed in Baculovirus-transfected HighFive insect cells) (human) (UniProt Q99988). Briefly: SPR (Biorad ProteOn XPR36), KD=koff/kon.
In assay [2] the target is recombinant mature human GDF-15 protein derived from expression in E. coli (human) (UniProt Q99988). As to the kind of experiment: SPR (Biorad ProteOn XPR36), E. coli GDF-15 immobilised, antibody as analyte.
In assay [3] the target is recombinant mature human GDF-15 protein (as expressed in Baculovirus-transfected HighFive insect cells) (human) (UniProt Q99988). As to the kind of experiment: SPR (Biorad ProteOn XPR36, GLC chip), GDF-15 immobilised, antibody as analyte, 1:1 Langmuir fit, 25 C.

A word on the Kd: it is a measure of binding affinity in units of concentration. For orientation: koff means a measure of how fast the partners let go of each other. In general, kon refers to a measure of how fast the partners come together. Turning to “monoclonal anti-human GDF-15 mAb-B1-23 (antibody)”, in assay [1], the dissociation constant Kd came to 0.79 nM. Further, in assay [2], the deviation of rate constants against GDF-15 derived from insect cells was found to be 45% and the fold difference of affinity values against GDF-15 derived from insect cells was less than 2 fold. Further, in assay [3], the koff was 0.00043 s⁻¹ and the kon came to 540000 M⁻¹ s⁻¹.

For the origin of these results see patent publication US20230408521A1.
